Data: patent US20190202912A1 (NEXTCURE, published 2019)

What was measured:
[1] = target: T1, S15-extra cellular domain (ECD) monomer (human, UniProt Q6ZMC9 20-263); test: BLI (Octet RED96), mAb on anti-human Fc sensors, S15-ECD monomer in solution, global fit
T1 construct: also called S15 monomer protein
T1 sequence: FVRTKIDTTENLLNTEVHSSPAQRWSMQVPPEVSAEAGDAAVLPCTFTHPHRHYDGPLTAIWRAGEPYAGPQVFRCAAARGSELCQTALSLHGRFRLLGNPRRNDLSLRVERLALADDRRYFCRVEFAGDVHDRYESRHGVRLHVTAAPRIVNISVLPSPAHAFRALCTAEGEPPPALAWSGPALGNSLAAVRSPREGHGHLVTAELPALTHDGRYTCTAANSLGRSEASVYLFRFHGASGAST
Protocol: Optimized KD experiments were performed on a ForteBio Octet RED96 instrument using anti-human Fc capture (AHC, 18-5060; ForteBio) sensors. Assay buffer was PBS containing 0.05% Tween-20 and regeneration buffer was 10 mM glycine (pH 1.5). First the antibodies were loaded at 1 μg/mL for 600 seconds. This was followed by a 60 second baseline step, a 300 second association step in S15-extra cellular domain (ECD) monomer, and finally a 1200 second dissociation step. The monomer concentrations ranged from 100 nM to 1.56 nM in a two-fold dilution series and a blank well was included. Data was processed using ForteBio's Data Analysis Software 7.0; a global fit was used, along with reference well subtraction. Reported values are the average of at least three independent octet runs.

mS15 = target: T2, mS15 (Mus musculus); test: flow cytometry titration, 293T cells transfected with mouse Siglec-15 (293T.mS15)
T2 construct: full length, cell surface; also called mouse Siglec-15
Protocol: […] Cells were incubated at 4 degrees C. for 30 minutes, then washed twice with excess FACS buffer. Cells were resuspended in 100 ul FACS buffer and 0.005 ug of anti-mouse IgG-PE secondary antibody was added to samples, incubated for 30 minutes and washed twice with excess FACS buffer. Cells were fixed in fixation buffer (2% formaldehyde in PBS) and subsequently analyzed by flow cytometry.

Binder	Kd [1]	koff [1]	kon [1]	EC50 (read off the curve) (mS15)
5G12 (antibody, V domains shown, Mouse anti-human Siglec-15 mAb) VH: QVQLQQPGAELVKPGASVKMSCKASGYTFTSYWITWVIQRPGQGLEWIGDIYCGSDTMHYNEKFKNKATLTVDTSSSTAYMQLSSLTSEDSAVYYCARWWDYGSSYDYFDYWGQGTTLTVSS VL: DIKMTQSPSSMYASLGERVTITCKASQDINSYLSWFQQKPGKSPKTLIYRANRLVDGVPSRFSGSGSGQDYSLTISSLEYEDMGIYYCLQYDEFPYTFGGGTKLEIKR	0.3 nM	0.000123 s⁻¹	421000 M⁻¹ s⁻¹	~0.05 µg/mL
1H3 (antibody, V domains shown, Mouse anti-human Siglec-15 mAb) VH: QVQLKESGPGLVAPSQSLSITCTVSGFSLSNYGVHWVRQPPGKGLEWLVLIWSDGSTTYNSALKSRLSISKDNSKSQVFLKMNSLQTGDTAMYYCARHPYDDYSGYYYTMDYWGQGTSVTVSS VL: DIQMTQASSSLSVSLGGRVTITCKASDHINNWLAWYQQKPGNAPRLLISGATSLETGVPSRFSGSGSGKDYTLSITSLQTEDVATYYCQQYWSSPLTFGAGTKLELK	0.11 nM	3.9e-05 s⁻¹	359000 M⁻¹ s⁻¹	~0.05 µg/mL
